Measurements published in US20240117030A1 (Pfizer, published 2024).
Substitutions are numbered along the chain they refer to. Read-outs that look alike come from different tables or passages of the source.

What was measured:
[1] = target: T1, recombinant human IL-33 (R&D Systems 3625-IL), reduced with DTT (human, UniProt O95760 112-270, limits assumed); assay: cell-based or functional assay
T1 sequence (looked up): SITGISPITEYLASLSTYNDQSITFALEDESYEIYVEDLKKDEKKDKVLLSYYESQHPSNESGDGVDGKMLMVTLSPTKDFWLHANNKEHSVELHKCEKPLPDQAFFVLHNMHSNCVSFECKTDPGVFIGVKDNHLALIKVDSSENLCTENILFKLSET

[2] = target: T1, recombinant human IL-33 (R&D Systems …); assay: cell-based or functional assay; remark: listed apart in the source
[3] = target: T2, biotinylated human IL-33 wild-type (WT), reduced with 3 mM DTT (human, UniProt O95760 112-270, limits assumed, biotinylated (site not stated)); assay: KinExA solution affinity, fixed antigen format, global fit
T2 sequence (looked up): T1 sequence (looked up)

[4] = target: T3, human IL-33 mm2 Cys (human, UniProt O95760 112-270, limits assumed); assay: cell-based or functional assay
T3 sequence (looked up): T1 sequence (looked up) with C97S, C116S, C121S, C148S

[5] = target: T1, recombinant human IL-33 (R&D Systems …); assay: cell-based or functional assay; remark: listed apart in the source
[6] = target: T4, recombinant human IL-4 (human, UniProt P05112 25-153); assay: cell-based or functional assay
T4 sequence (looked up): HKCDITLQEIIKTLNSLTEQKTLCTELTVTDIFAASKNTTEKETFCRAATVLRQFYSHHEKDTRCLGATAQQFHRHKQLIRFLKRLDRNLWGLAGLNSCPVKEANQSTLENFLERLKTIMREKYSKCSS

[7] = target: T4, recombinant human IL-4; assay: cell-based or functional assay; remark: listed apart in the source
[8] = target: T5, recombinant human IL-12 (human, UniProt P29459 23-219; P29460 23-328); assay: cell-based or functional assay
T5 sequence (looked up) 1: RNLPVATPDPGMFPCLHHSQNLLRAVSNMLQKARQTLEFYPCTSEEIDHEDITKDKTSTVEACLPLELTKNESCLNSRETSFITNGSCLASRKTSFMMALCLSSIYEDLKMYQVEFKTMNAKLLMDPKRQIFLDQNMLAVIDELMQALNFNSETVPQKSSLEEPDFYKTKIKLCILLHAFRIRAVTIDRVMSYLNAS
T5 sequence (looked up) 2: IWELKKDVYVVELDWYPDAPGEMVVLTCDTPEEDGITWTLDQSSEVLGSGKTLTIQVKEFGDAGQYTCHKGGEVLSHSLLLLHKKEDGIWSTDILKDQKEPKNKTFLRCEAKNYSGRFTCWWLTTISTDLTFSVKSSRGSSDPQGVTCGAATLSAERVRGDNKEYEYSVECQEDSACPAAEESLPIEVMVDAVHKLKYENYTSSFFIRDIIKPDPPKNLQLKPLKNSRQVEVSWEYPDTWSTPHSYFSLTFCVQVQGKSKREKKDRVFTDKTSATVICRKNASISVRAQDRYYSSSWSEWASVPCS

[9] = target: T6, recombinant human IL-23 (human, UniProt Q9NPF7 20-189; P29460 23-328); assay: cell-based or functional assay
T6 sequence (looked up) 1: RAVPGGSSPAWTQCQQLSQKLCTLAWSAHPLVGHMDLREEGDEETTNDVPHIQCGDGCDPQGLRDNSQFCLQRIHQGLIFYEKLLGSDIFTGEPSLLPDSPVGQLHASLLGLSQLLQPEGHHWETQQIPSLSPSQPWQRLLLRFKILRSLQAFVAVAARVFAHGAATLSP
T6 sequence (looked up) 2: T5 sequence (looked up) 2

[10] = target: T5, recombinant human IL-12; assay: cell-based or functional assay; remark: listed apart in the source
[11] = target: T6, recombinant human IL-23; assay: cell-based or functional assay; remark: listed apart in the source
[12] = target: T7, recombinant human IL-33 (human, UniProt O95760 112-270, limits assumed); assay: cell-based or functional assay
T7 sequence (looked up): T1 sequence (looked up)

[13] = target: T8, IL-33 mm2 (human, UniProt O95760 112-270, limits assumed); assay: cell-based or functional assay
T8 sequence (looked up): T1 sequence (looked up) with C97S, C116S, C121S, C148S

B1: IL33-0726 (antibody, human IgG1, kappa, V domains shown)
VH: EVQLVESGGGLVQPGGSLRLSCAASGFTFSSYWMYWVRQAPGKGLEWVAAITPNAGEDYYPESVKGRFTISRDNAKNSLYLQMNSLRAEDTAVYYCARGQYYYTKYSLGYWGQGTLVTVSS
VL: DIQMTQSPSSLSASVGDRVTITCRASQPIHNHLDWYQQKPGKAPKLLIYFGKNLQEGVPSRFSGSGSGTDFTLTISSLQPEDFATYYCFQYKKGWSFGGGTKVEIKR
notes: also called IL33-0726 IgG; IL13433-0726
IC50 [pM] versus human reduced IL-33 (R&D), Experiment 2 (HEK-Blue SEAP) [1]: 6 pM
IC50 [nM] versus reduced human IL-33 (R&D), IC50 (AVE) [2]: 0.008 nM
Kd [3]: < 0.237 pM

B2: IL33-0232 (antibody, human IgG1, kappa, V domains shown)
VH: B1 VH with Q100H, K105S
VL: B1 VL with R24K, P28N, H30N, N31K, G51T, K52N, E56T, K92N, K93Q, S96T
IC50 [pM] versus human reduced IL-33 (R&D), Experiment 1 (HEK-Blue SEAP) [1]: 35 pM
IC50 [pM] versus human IL-33 mm2 Cys (HEK-Blue SEAP) [4]: 142 pM
IC50 [nM] versus reduced human IL-33 (R&D), IC50 (AVE) [5]: 0.071 nM
IC50 [nM] versus reduced human IL-33 (R&D), IC50 (AVE) [2]: 0.109 nM
Kd [3]: 3.4 pM

B3: IL4-0002 (antibody, human IgG1, kappa)
heavy: EVTLRESGPALVKPTQTLTLTCTFSGFSLSNFGEGLSWIRQPPGKGLEWLAHIYWDDDKRYNPSLKSRLTISKDTSRNQVVLTMTNMDPVDTATYYCARRETVFYWYFDVWGQGTTVTVSSASTKGPSVFPLAPSSKSTSGGTAALGCLVKDYFPEPVTVSWNSGALTSGVHTFPAVLQSSGLYSLSSVVTVPSSSLGTQTYICNVNHKPSNTKVDKKVEPKSCDKTHTCPPCPAPEAAGAPSVFLFPPKPKDTLMISRTPEVTCVVVDVSHEDPEVKFNWYVDGVEVHNAKTKPREEQYNSTYRVVSVLTVLHQDWLNGKEYKCKVSNKALPAPIEKTISKAKGQPREPQVYTLPPSREEMTKNQVSLTCLVKGFYPSDIAVEWESNGQPENNYKTTPPVLDSDGSFFLYSKLTVDKSRWQQGNVFSCSVMHEALHNHYTQKSLSLSPGK
light: DIQMTQSPSSLSASVGDRVTITCKASQSVDEDGDSYMNWYQQKPGKAPKLLIYAASNLESGVPSRFSGSGSGTDFTLTISSLQPEDFATYYCQQSNEDPPTFGGGTKVEIKRTVAAPSVFIFPPSDEQLKSGTASVVCLLNNFYPREAKVQWKVDNALQSGNSQESVTEQDSKDSTYSLSSTLTLSKADYEKHKVYACEVTHQGLSSPVTKSFNRGEC
IC50 (median), IL-4 induced CD23 expression on human monocytes [6]: 2.09 pM
IL-4 induced CD23 upregulation (IC50), parental IgG [7]: 2.06 pM

B4: p40-0003 (antibody, human IgG1, kappa, V domains shown)
VH: EVQLVQSGAEVKKPGESLKISCKGSGYSFTTYWLGWVRQMPGKGLDWIGIMSPVDSDIRYSPSFQGQVTMSVDKSITTAYLQWNSLKASDTAMYYCARRRPGQGYFDFWGQGTLVTVSS
VL: DIQMTQSPSSLSASVGDRVTITCRASQGISSWLAWYQQKPEKAPKSLIYAASSLQSGVPSRFSGSGSGTDFTLTISSLQPEDFATYYCQQYNIYPYTFGQGTKLEIKR
IC50 (mean), Kit-225 assay, IL-12 induced phospho-STAT4 [8]: 155 pM
IC50 (mean), Whole blood assay, IL-12 induced phospho-STAT4 [8]: 262 pM
IC50 (mean), Kit-225 assay, IL-23 induced phospho-STAT3 [9]: 850 pM
IC50 (mean), Whole blood assay, IL-23 induced phospho-STAT3 [9]: 4.51 nM
IC50 (mean), Kit-225 assay, IL-12 induced phospho-STAT4 [10]: 155 pM
IC50 (mean), Whole blood assay, IL-12 induced phospho-STAT4 [10]: 262 pM
IC50 (mean), Kit-225 assay, IL-23 induced phospho-STAT3 [11]: 850 pM
IC50 (mean), Whole blood assay, IL-23 induced phospho-STAT3 [11]: 4.51 nM

B5: IL33-158LS (antibody, V domains shown)
VH: B1 VH with Q100H, K105S
VL: DIQMTQSPSSLSASVGDRVTITCKASQNINKHLDWYQQKPGKAPKLLIYFTNNLQTGVPSRFSGSGSGTDFTLTISSLQPEDFATYYCFQYNQGWTFGGGTKVEIK
IC50 (mean), HEK-Blue IL-33 SEAP [12]: 56.2 pM
IC50 (mean), IFNg Whole Blood (IL-12 plus IL-33 mm2-Cys) [13]: 16.2 pM
